These results are taken from the DeepSol protein solubility set.

The data set in a line: soluble on expression in E. coli; label from the status in PepcDB or PDB records.
Regarding “KKSPSAGSGSNGGNKKISQEEGEDNGGEDNKKLRGALSSAILSEKPNVKWEDVAGLEGAKEALKEAVILPVKFPHLFKGNRKPTSGILLYGPPGTGKSYLAKAVATEANSTFFSVSSSDLVSKWMGESEKLVKQLFAMARENKPSIIFIDQVDALTGTRGEGESEASRRIKTELLVQMNGVGNDSQGVLVLGATNIPWQLDSAIRRRFERRIYIPLPDLAARTTMFEINVGDTPSVLTKEDYRTLGAMTEGYSGSDIAVVVKDALMQPIRKIQSATHFKDVSTEDDETRKLTPSSPGDDGAIEMSWTDIEADELKEPDLTIKDFLKAIKSTRPTVNEDDLLKQEQFTRDFGQEGN”, the “soluble on expression in E. coli” value was “soluble”.

“KLDKAYLNNDADKITYMPTWRPWEESEIINGNIKKTTYYKSILDVIKAFEKENMLNRLQIAAHNKFSQYMKNNFDKYQNIFIEDPTDTLTNSIIYITDISSIILDAAYRGAYPIFYWKEFDYIIEKHGGTSPVNPENAPGDVVYSEQDLVNIVKYIIRNDYKIPSRIKENYKKLNEFNDNQNTQRVVDILIEDNII”: the “soluble on expression in E. coli” value is reported as “not soluble”.

In the case of “KLEFREVDKDALVNDEKLLREFFGIYVLAHYRNRPSDLAILLDMPNHLPFIVTVNGKPVCSLHIAVEGNLDDETIEKIKEGYKPKGQIIPDLMLKHYWDFEFPKLVGARVVRIATHPSVMDMGIGSFALAKIVEWAYGRDMDWVGSGFGVSPELLRFWAKNHFTPVHITPQRNE”, the “soluble on expression in E. coli” value is “not soluble”.

With “KMPLTIYSADGEVIGMYGEQRREFTKIGDFPEVLRNAVIAAEDKRFYRHWGVDVWGVARAAVGNVVSGSVQSGASTITQQVAKNFYLSSEKTFTRKFNEVLLAYKIEQSLSKDKILELYFNQIYLGQRAYGFASAAQIYFNKNVRDLTLAEAAMLAGLPKAPSAY”, the “soluble on expression in E. coli” value is on record as “not soluble”.

Regarding “KMPVTAGLTVEKKINKHLAVETGLLYSNLRAEQNLHYLGIPVKLNVTLAETPKFDLYASVGGVADKCIAGAPDNSFKNEPVQLALTAGVGMNYKINDKLALFAEPG”, the “soluble on expression in E. coli” value was “not soluble”.

Regarding “KNKTIEVYVDRATLPTIQQMTQIINENSNNKKLISWSRYPINDETLLESINGSFFKNRPELIKSLDSMILTNEIKKVIINGNTLWAVDVVNIIKSIEALGKKTEIELNFYDDGSAEYVRLYDFSRLPESEQEYKISLSKDNIQSSINGTQPFDNSIENIYGFSQLYPTTYHMLRADIFETNLPLTSLKRVISNNIKQMKWDYFTTFNSQQKNKFYNFTGFNPEKIKEQYKASPHENFIFIGTNSGTATAEQQIDILTEAKKPDSPIITNSIQGLDLFFKGHPSATYNQQIIDAHNMIEIYNKIPFEALIMTDALPDAVGGMGSSVFFSLPNTVENKFIFYKSDTDIENNALIQVMIELNIVNRNDVKLISDLQ”, the “soluble on expression in E. coli” value was “soluble”.

For “KNTPVDAIPDLSDVQVIIKTSYPGQAPQVVEDQVTYPLTTAMLAVPGAETVRGYSFFGDSYVYIIFNDDTDMYWARSRVLEYLSQVAPKLPPNAKPTLGPDATGVGWVYSYVLQDKTGQHDLAELRSLQDWFLKYELQTVDGVSEVATVGGMVKQYQVQIDPAKLRAYNLTLQQVNMAIQNGNQETGASVVEVAEAEHMVRTTGYLTSIEDIKSLPLKVTDKGTPLLLGDIADINLGPQMRRGISELNGEGEAVGGVIVMRYGENASEVISKVKDKLEDLQRSLPDGVEIVTTYDRSTLINAAVDNLWKKLAEEFIVVAIVCALFLFHIRSS”, the “soluble on expression in E. coli” value is on record as “not soluble”.

Turning to “KPGARIGVGMEYQFNDMISLQPSLFFSQKGAKYSSGFDGNIIDADADVKINQLYLELPVNVQFRFNIADNTNLVIATGPYLACGVGGKAKFDGDASVGGIHINGDDKIDTFGDDGLDYNRFDAGWNIGLGVEFGKILVGLDTQLGFCKVMDGDAPHNANIGITLGYKF”, the “soluble on expression in E. coli” value is listed as “not soluble”.

As to “KQPKKSQPDLFYATDGTPILVGKNNLQNDQLTLRTAKKTDYWLHAKDIPGSHVIIRDAHPSEETLTEAALLAAYFSKYRLSSQVPVDYVQVKHVHK”, the “soluble on expression in E. coli” value is “not soluble”.

With “KQVYAFDIQKQALEKTQERLHQADLTNAQLILQGHETLDQFVIKAKAGIFNLGYLPAADKSVITRPQTTIEALEKLCGLLVKGGRIAIMIYYGHEGGDLERDAVLDFVIQLNQQEYTAAIYRTLNQVNNPPFLVMIEKLERYRH”, the “soluble on expression in E. coli” value was “not soluble”.

In the case of “KRAPDGRVLDIAGTEHSLHDLTRGKISLVSFVYLTCGDVNGCPLAMSVFFDVHDASGDLPGLNEDVQLLTISFDPARDTVEAIEAFAYPITSDEQAGDKLNWQVLTTSGPQELRPILDGYGQVVDRSEDQETISHLLRLFLVDRQGDIRNVYGLGFLDPRLLLTDIETLLMEEAGA”, the “soluble on expression in E. coli” value is on record as “soluble”.

With “KRATQFTASILSLYNSEQMLQKTDPMSVISSAMVAATLDLPIDKNLGYAWIVPYGGKAQFQLGYKGYIQLALRTGQYKSINCIPIHEGELQKWNPLTEEIEIDFEKRESDAVIGYAAYFELINGFRKTVYWTKAQVEKHKKKFSKSDFGWKNDWDAMALKTVLKAVLSKWGILSVEMQKAVIEEDETRERIDITNEADSSEIIDSE”, the “soluble on expression in E. coli” value is given as “soluble”.

“KRRFELRGIVNNISVYDDFAHHPTAIAKTLAGVRAKLSQQESEQEQVGRIFAVLEPRSNTMRSGVHKESLPKSLIDADQVFIYQGEQVTWSVSDLIKQCKPACQVEDNVERLVESIAQQAQAGDIIVVMSNGGFADIHNKLLNRLANIPVPLEDA”: the “soluble on expression in E. coli” value is recorded as “not soluble”.

Take “KRTMSISWPLAFSGAFQGSLTGMDNLRFICRIYNVDIDYVKAFTEEFSELGQYLYEPVKRYSSGMKARLAFALSLAVEFDCYLIDEVIAVGDSRFADKCKYELFEKRKDRSIILVSHSHSAMKQYCDNAMVLEKGHMYQFEDMDKAYEYYNSLP”: the “soluble on expression in E. coli” value is reported as “not soluble”.

For “KSAKEMLEYCNSTGLSLSGMVMQNELALHSKKEIEEYFGHVWQTMQACIDRGMNTEGVLPGPLRVPRRASALRRMLVSSDKLSSDPMNVIDWVNMFALAVNEENAAGGRVVTAPTNGACGIVPAVLAYYDHFIESVSPDIYTRYFLAAGAIGALYKMNASISGAEVGCQGEVGVACSMAAAGLAELLGASPEQVCVAAEIGMEHNLGLTCDPVAGQVQVPCIERNAIASVKAINAARMAMRRTSAPRVSLDKVIETMYETGKDMNAKYRETSRGGLAIK”, the “soluble on expression in E. coli” value is on record as “not soluble”.

“KSEHETRLEAKLFEDYSSVVRPVEDHREIVQVTVGLQLIQLINVDEVNQIVTTNVRLKQQWVDYNLKWNPDDYGGVKKIHIPSEKIWRPDVVLYNNADGDFAIVKFTKVLLDYTGHITWTPPAIFKSYCEIIVTHFPFDEQNCSMKLGTRTYDGSAVAINPESDQPDLSNFMESGEWVIKEARGWKHWVFYSCCPTTPYLDITYHFVMQRLP”: the “soluble on expression in E. coli” value is on record as “soluble”.

Regarding “KVLTIKSCNIHSGIGIRPHAQIELEYQGKIHKEISEGDGGYDAFMNALTKITNRLGISIPKLIDYEVRIPPGGKTDALVETRITWNKSLDLEEDQTFKTMGVHPDQTVAAVHATEKMLNQILQPWQI”, the “soluble on expression in E. coli” value is given as “soluble”.

In the case of “KVTKLINDDPTLTHDQKVDQINKVEQAKLDAIKSVDDAQTADAINDALGKGIENINNQYQHGDGVDVRKATAKGDL”, the “soluble on expression in E. coli” value is on record as “not soluble”.

As for “KVWKPGDECFALYWEDNKFYRAEVEALHSSGMTAVVKFTDYGNYEEVLLSNIKPVQTEAWVRDPN”, the “soluble on expression in E. coli” value is reported as “soluble”.

Consider “KWFRIDHVQEAHDAGVAVEDLFTRQIKVNHVVTGSDLVIDIHHTLGLEIIVSRIERDGQQTLPTASSRIHMGDVLSVVGTAEELDKAAHVLGDLLPGDPFHGHDLDYRRIFVSNQDLVGIPLAKLRPRLSGILITRVRRGDHDHVATPETVLQLGDRVRVVAAHDRMKSVTALFGDSYRRLSD”, for which the “soluble on expression in E. coli” value is reported as “not soluble”.

Regarding “KYIMHQTTPNYTVTLLAALLPWQFFQGAVQGSTTSIISNSNLIKKIYFPRQIMPLSI”, the “soluble on expression in E. coli” value is recorded as “not soluble”.

With “LAIPEKRLSNNIILTKLKIALNLQAEQIISLLESVDFRISKPELSAFSRKVDHQHYRECKDQVLRNLLHAIDKTYHV”, the “soluble on expression in E. coli” value is listed as “not soluble”.

As for “LDFGALPPEINSGRMYCGPGSGPMLAAAAAWDGVAVELGLAATGYASVIAELTGAPWVGAASLSMVAAATPYVAWLSQAAARAEQAGMQAAAAAAAYEAAFVMTVPPPVITANRVLVMTLIATNFFGQNSAAIAVAEAQYAEMWAQDAVAMYGYAAASASASRLIPFAAPPKTTNSAGVVAQVAAVAAMPGLLQRLSSAASVSWSNPNDWWLVRLLGSITPTERTTIVRLLGQSYFATGMAQFFASIAQQLTFGPGGTTAGSGGAWYPTPQFAGLGASRAVSASLARANKIGALSVPPSWVKTTALTESPVAHAVSANPTVGSSHGPHGLLRGLPLGSRITRRSGAFAHRYGFRHSVVARPPSAG”, the “soluble on expression in E. coli” value is “not soluble”.

“LDKRWLQICEDASTLCADRVKEVLEGHGFTGLHVAAAVADTMAVGDTLFLGASNPVRDASLVGMPLGGVDIFAARGAAGIDGTVSQAVGVALDVQHRDATAIRADRTVALMGDVTFLHDVGGLLGARPENLTIVVANDDGCGIFETLEIGAPEFRPSFEQAFGTPHGVHIEAIAQAYGVNYLRAETLPELIEALIDTTDSAGFNIIEAVTTRSTRRDIDKALTL”: the “soluble on expression in E. coli” value is on record as “not soluble”.

For the sequence “LDVAKSLDQGLVDRMLQSNTGTDSCPKRLPKGIDSVTLDKIRDLFVGEAALTADEAGEKIGASRTTARRYLEYLISSGELEADLNYGTVGRPERCYKKVIR”, the “soluble on expression in E. coli” value is “not soluble”.

In the case of “LEKNDLVYMQRAFELNDKVAKDIMIDRTQLVVIDITSTVKEALNVYLQERFSRLPVVADNDKDKVLGYVYNYDLTRQQQVDSSVRVDKLIRDISTTPETTPITQVLQQMIKKRTPIVVVVDEYGGTSGIITDKDIYEEL”, the “soluble on expression in E. coli” value is reported as “not soluble”.

For the sequence “LESLLTLPLAGEARVRILQITDTHLFAQKHEALLGVNTWESYQAVLEAIRPHQHEFDLIVATGDLAQDQSSAAYQHFAEGIASFRAPCVWLPGNHDFQPAMYSALQDAGISPAKRVFIGEQWQILLLDSQVFGVPHGELSEFQLEWLERKLADAPERHTLLLLHHHPLPAGCSWLDQHSLRNAGELDTVLAKFPHVKYLLCGHIHQELDLDWNGRRLLATPSTCVQFKPHCSNFTLDTIAPGWRTLELHADGTLTTEVHRLADTRFQPDTASEGY”, the “soluble on expression in E. coli” value is recorded as “soluble”.

Consider “LEYSDSIDLLNMDLYDLMKLADRLTHYDAGETVSYAISYNINYTNYCTASCPICAFYVPYKNKRFGKGYELTKEQVRKEALIAKQKGATEIHIVGGFDPDLSIEYYEDIFRTIRGIMPNVAIKAFTIPEIDFIARTTGNSIKETVLRFMDAGMNAHTGGGAEIFDQEIRKYITTPEKVSGEKWLEDAKIIHSLGLKGNSTMTYGHIEGWEHIIDHMIRLRDNQIEVPGFLSFIPLKFSPENTALLRSGRVHGPAPVDKDLKVIALARIIMGRAIRNISVYWVAIGKLTAQIAINGGGNDLVGTAYSEKVFGATDRKTSTTTEELNNMIRQAGKIPGVR”, for which the “soluble on expression in E. coli” value is “not soluble”.

Take “LFPDELIDQLLAQVQGKDAESILGESGLAGQLKKQLAERMLAAELSHHLAAETEQGRAGNHRNGTSAKTVLTPNGELKLDIPRDRQATFEPQLVGKYQRRLPGFDDHVISMYARGMSVREIQGHLLELYGLQVSPDLISTVTDEVLADVEQWQQRPLEAMYPIVYFDALRLKIRDEGTVKNKAVYLALGIRAEGRKEVLGLWIEQTEGAKFWLKVFNELRTCQEFRVLRPVK”: the “soluble on expression in E. coli” value was “not soluble”.

As to “LFRRWVIYIIRLYQRWISPLKTMPSCRFYPTCSQYAIDAVGRYGVIKGGFMALKRILKCHPFHPGGYDPVK”, the “soluble on expression in E. coli” value is recorded as “soluble”.
